The record followed here is patent US20190359693A1.

Assay in all cases: cell-based or functional assay
The target of experiment [1] is hemagglutinin (HA) of influenza A/Solomon Islands/3/2006 (IVR 145) (H1N1) (influenza A virus).
In experiment [2] the target is hemagglutinin (HA) of influenza A/Great Cormorant/MP2934/04 (H9N2) (influenza A virus).
The target in experiment [3] is hemagglutinin (HA) of influenza A/Eurasian Wigeon/HK/MPF333/07 (H5N2) (influenza A virus).
The target of experiment [4] is hemagglutinin (HA) of influenza A/Northern Shoveler/MPF518/08 (H7N7) (influenza A virus).
Experiment [5] has as its target hemagglutinin (HA) of influenza A/Env/MPJ1258/09 (H8N2) (influenza A virus).
The target of experiment [6] is hemagglutinin (HA) of influenza A/Eurasian Wigeon/MPF461/07 (H5N2) (influenza A virus).
Experiment [7] addresses hemagglutinin (HA) of influenza A/Hiroshima/52/05 (H3N2) (influenza A virus).
The target of experiment [8] is hemagglutinin (HA) of influenza B/Florida/04/06 (Yamagata) (influenza B virus).
Experiment [9] addresses hemagglutinin (HA) of influenza A/Eurasian Wigeon/MPD411/07 (H6N8) (influenza A virus).
In experiment [10] the target is hemagglutinin (HA) of influenza A/HK/54/98 (H1N1) (influenza A virus).
Experiment [11] addresses hemagglutinin (HA) of influenza B/Brisbane/60/08 (Victoria) (influenza B virus).
Experiment [12] has as its target hemagglutinin (HA) of influenza A/PR8 H7N7-NY (H7N7) (influenza A virus).
For experiment [13], the target named is hemagglutinin (HA) of influenza A/Johannesburg/33/94 (H3N2) (influenza A virus).
Experiment [14] addresses hemagglutinin (HA) of influenza B/Harbin/7/94 (Yamagata) (influenza B virus).
Experiment [15] deals with hemagglutinin (HA) of influenza A/Brisbane/10/07 (H3N2) (influenza A virus).
In experiment [16] the target is hemagglutinin (HA) of influenza A/Mississippi/03/01 274H (H1N1) (influenza A virus).
Experiment [17] has as its target hemagglutinin (HA) of influenza A/Ck/HK/SSP176/09 (H9N2) (influenza A virus).
For experiment [18], the target named is hemagglutinin (HA) of influenza B/Massachusetts/02/12 (Yamagata) (influenza B virus).
The target in experiment [19] is hemagglutinin (HA) of influenza A/Eurasian Wigeon/MPH571/08 (H8N4) (influenza A virus).
Experiment [20] concerns the target hemagglutinin (HA) of influenza A/Northern Pintail/MPC2085/07 (H11N9) (influenza A virus).
The target in experiment [21] is hemagglutinin (HA) of influenza A/Taiwan/2/2013 (H6N1) (influenza A virus).
In experiment [22] the target is hemagglutinin (HA) of influenza A/Guiyang/1/57 (H2N2) (influenza A virus).

As to MD3606 (Fc fusion), the Average neutralization titers in [1] turned out to be 1.6 nM; in experiment [2], 9.7 nM; in experiment [3], 7 nM; in [4] it was 18.4 nM; in experiment [5] it was 3.9 nM; in [6] it was 9.2 nM. For the same substance, the Average neutralization titers was determined as 6.5 nM in experiment [7]; 1 nM in experiment [8]; 9.7 nM in experiment [9]; 5 nM in experiment [10]; 1 nM in [11]; 8.1 nM in experiment [12]. Also, the Average neutralization titers was found to be 8.1 nM in experiment [13]; 1 nM in experiment [14]; 4.1 nM in [15]; 4.7 nM in [16]; 9 nM in experiment [17]; 1 nM in [18]. For the same substance, the Average neutralization titers in experiment [19] came to 3.7 nM; in experiment [20], 7.2 nM; in experiment [21], 14.5 nM; in experiment [22], 26.7 nM. Further, the ADCC induction (EC50 grade, FcγRIIIa reporter bioassay) in experiment [8] and in [11] was less than 0.1 µg/mL each time.
